Data set [1] deals with NC[C@H]1O[C@H](O[C@H]2[C@H](O)[C@@H](O[C@H]3O[C@H](CO)[C@@H](O)[C@H](N)[C@H]3O)[C@H](N)C[C@@H]2N)[C@H](O)[C@@H](O)[C@@H]1O. The experiment in a line: purified protein. The settings on record: co-substrate AcCoA fixed (printed 0.5 μM), pH 8.0, 25 °C.
For data set [2], the system named is NC[C@@H]1O[C@H](O[C@H]2[C@@H](O)[C@H](O[C@@H]3[C@@H](O)[C@H](N)C[C@H](N)[C@H]3O[C@H]3O[C@H](CO)[C@@H](O)[C@H](O)[C@H]3N)O[C@@H]2CO)[C@H](N)[C@@H](O)[C@@H]1O. The data set can be described thus: purified protein. The settings on record: co-substrate AcCoA fixed (printed 0.5 μM), pH 8.0, 25 °C.
A further data set addresses Eis_Mab2 (Mycobacteroides abscessus, UniProt B1MKV6). The data set can be described thus: DTNB. The data set is classed as biochemical.

The Km is the substrate concentration at which the rate is half of its maximum. Broadly, the kcat is the maximal rate divided by the concentration of active sites. The term kcat/Km denotes the turnover number divided by the Michaelis constant. As for “Eis_Mab2 (Mycobacteroides abscessus ATCC 19977)”, in data set [1], the Km worked out at 125 ± 27 µM, the kcat is 0.124 ± 0.007 s⁻¹ and the kcat/Km came out at 992 ± 377 M⁻¹ s⁻¹. In data set [2], the Km was 144 ± 14 µM, the kcat amounted to 2.83 ± 0.07 s⁻¹ and the kcat/Km was 19700 ± 1970 M⁻¹ s⁻¹.
A word on the IC50: it is the concentration needed to halve the response being measured. The low end stands for greater potency, the high end for weaker potency. `[H]/N=C(\N/C(=N/[H])NCCCCCCNC(=N)NC(=N)Nc1ccc(Cl)cc1)Nc1ccc(Cl)cc1` [chlorhexidine] showed an IC50 against Eis_Mab2 of 4.4 ± 0.9 µM.
